Reference: patent US9243231B2, “Mutant cytochrome P450 2B6 proteins and uses thereof” (Institut National de la Santé et de la Recherche Médicale …, priority 2011, dated 2016)
Entries after “also recorded” stand apart in the source; their conditions may differ.

What was measured:
[1] = tested on: TC1-Luc2 mouse pulmonary tumour cells; assay: In vivo cytotoxicity assay, subcutaneous TC1 tumours in mice treated with CPA; conditions: CPA 140 mg/kg i.p., C57Bl6 mice, FIG. 14
Method: To test the capacity of the triple mutant to enhance the response to CPA in vivo, a mouse model was used. Mouse pulmonary tumour cells (TC1-Luc2) were infected with a lentivirus vector carrying the CYP2B6TM-RED construct and injected subcutaneously into C57Bl6 mice. As a control, uninfected TC1 cells-were injected. TC1-Luc2 cells express luciferase, permitting tumour size to be monitored via bioluminescence.
In initial experiments, 10 mice were injected with CYP2B6TM-RED-TC1 cells and 10 were injected with uninfected TC1 cells. Tumour growth was monitored, and when the tumour size reached approximately 400 mm^3 half of the mice were treated with CPA via intraperitoneal injection at 140 mg/kg. untreated mice were sacrificed when tumour volume reached around 1500 mm^3.

[2] = CPA 4-hydroxylase activity in yeast microsomes; format: biochemical; conditions: for Vmax of CPA-4' hydroxylation / Km / CPA hydroxylase activity Vmax: yeast microsomes; for Vmax of CPA-4' hydroxylation / Km: FIG. 9; for Km: read-out: Km of CPA-4' hydroxylation; for CPA hydroxylase activity Vmax: Table 1
Text: CYP2B6 wt or CYP2B6TM alone or in fusion with RED were expressed in the MR) yeast strain, in which yeast NADPH cytochrome P450 reductase was constitutively expressed. The pYeDP60 plasmids were introduced into intact yeast cells based on a refined lithium acetate-mediated protocol as described in Truan et al, 1993, above. Yeast culture conditions were as described in Bellamine A, Gautier J C, Urban P, Pompon D (1994): Chimeras of the human cytochrome P450 1A family produced in yeast. Accumulation in microsomal membranes, enzyme kinetics and stability. Eur J Biochem 225:1005-13. Yeast microsomes were prepared based on the mechanical disruption method using glass beads as described in Bellamine A, Gautier J C, Urban P, Pompon D. (1994): Chimeras of the human cytochrome P450 1A family produced in yeast. Accumulation in microsomal membranes, enzyme kinetics and stability. Eur J Biochem 225:1005-13. The fluorometric determination of yeast microsomal CPA 4-hydroxylase was adapted from a technique described previously (Roy P, Yu […]. (1999): […] Drug Metab Dispos 27:655-66) for a 96-well microplate with several modifications. Incubations were carried out for 1 h at 28° C. in a total volume of 200 μl and included 100 mM sodium phosphate buffer, pH 7.4, 1 mM EDTA, 10 pmol of CYP2B6 wt or CYP2B6TM or CYP2B6TM-RED with different linkers (microsomal P450 content was spectrally determined by the method of Schoene […], von Oldershausen H F. (1972): Determination of drug metabolizing enzymes in needle biopsies of human liver. Eur J Clin Pharmacol 4:65-73) and 10 mM CPA. Reactions were initiated by adding the NADPH-generating system and stopped by the addition of 200 μl of 10% trichloroacetic acid. After centrifugation at 13,000 g and 4° C. for 15 min to pellet the proteins, 300 μl of the supernatant was transferred to a clean test tube containing 160 μl of the fluorescence mixture (6 mg of 3-aminophenol and 6 mg of hydroxylamine hydrochloride freshly dissolved in 1 ml of 1N HCl). […] After cooling to room temperature, fluorescence reading were performed on a Bio-tek FL600 microplate fluorescence reader (excitation at 350 nm and emission at 515 nm). […] Data were analyzed using Prism software (Graph-Pad Software, Inc., San Diego, Calif.) to calculate kinetic parameters (Km, Vmax), with Vmax values expressed as moles of product formed per minute, normalized to the moles of P450 included in each reaction (turnover number expressed as minutes^-1). Data shown were based on duplicate determinations for each data point.

[3] = double mutant, earlier publication; cited from earlier work

Row | Molecule | Vmax of CPA-4' hydroxylation [2] [min⁻¹] | Km [2] [µM] | CPA hydroxylase activity Vmax [2] | further results
1 | O=P1(N(CCCl)CCCl)NCCCO1 (stereo not drawn) [CPA, cyclophosphamide] | – | – | – | change in tumour volume after CPA, uninfected TC1 tumours [1]: only a modest effect on the uninfected tumour cells and did not produce an overall reduction in tumour volume; also recorded: slowed this rapid increase in uninfected tumour cells but obtained no reduction in overall tumour size
2 | CYP2B6TM: human CYP2B6 triple mutant with substitutions I114V, L199M and V477W (SEQ ID No 1) (protein, listed as Homo sapiens) MELSVLLFLALLTGLLLLLVQRHPNTHDRLPPGPRPLPLLGNLLQMDRRGLLKSFLRFREKYGDVFTVHLGPRPVVMLCGVEAIREALVDKAEAFSGRGKIAMVDPFFRGYGVVFANGNRWKVLRRFSVTTMRDFGMGKRSVEERIQEEAQCLIEELRKSKGALMDPTFLFQSITANIICSIVFGKRFHYQDQEFLKMMNLFYQTFSLISSVFGQLFELFSGFLKYFPGAHRQVYKNLQEINAYIGHSVEKHRETLDPSAPKDLIDTYLLHMEKEKSNAHSEFSHQNLNLNTLSLFFAGTETTSTTLRYGFLLMLKYPHVAERVYREIEQVIGPHRPPELHDRAKMPYTEAVIYEIQRFSDLLPMGVPHIVTQHTSFRGYIIPKDTEVFLILSTALHDPHYFEKPDAFNPDHFLDANGALKKTEAFIPFSLGKRICLGEGIARAELFLFFTTILQNFSMASPVAPEDIDLTPQECGWGKIPPTYQIRFLPR | 107.5 ± 3.4 | 510 ± 80 | 105.5 nmol 4OH-CPA/min/nmol CYP2B6 | affinity for CPA relative to wild-type enzyme ([2]; greater than wild-type): 8 times; Vmax compared with wild-type enzyme ([2]; in words): retaining the same Vmax; efficiency at metabolising CPA into cytotoxic metabolite relative to wild-type ([2]; more efficient than wild-type protein): 10 times; change in tumour volume after CPA, tumours expressing CYP2B6TM-RED [1]: dramatic reductions in tumour size
3 | CYP2B6wt: wild-type human cytochrome P450 2B6, without reductase (protein, UniProt P20813 1-491, looked up) Cytochrome P450 2B6: MELSVLLFLALLTGLLLLLVQRHPNTHDRLPPGPRPLPLLGNLLQMDRRGLLKSFLRFREKYGDVFTVHLGPRPVVMLCGVEAIREALVDKAEAFSGRGKIAMVDPFFRGYGVIFANGNRWKVLRRFSVTTMRDFGMGKRSVEERIQEEAQCLIEELRKSKGALMDPTFLFQSITANIICSIVFGKRFHYQDQEFLKMLNLFYQTFSLISSVFGQLFELFSGFLKYFPGAHRQVYKNLQEINAYIGHSVEKHRETLDPSAPKDLIDTYLLHMEKEKSNAHSEFSHQNLNLNTLSLFFAGTETTSTTLRYGFLLMLKYPHVAERVYREIEQVIGPHRPPELHDRAKMPYTEAVIYEIQRFSDLLPMGVPHIVTQHTSFRGYIIPKDTEVFLILSTALHDPHYFEKPDAFNPDHFLDANGALKKTEAFIPFSLGKRICLGEGIARAELFLFFTTILQNFSMASPVAPEDIDLTPQECGVGKIPPTYQIRFLPR | 107.3 ± 3.74 | 4330 ± 500 | 62.5 nmol 4OH-CPA/min/nmol CYP2B6 | –
4 | I114V/V477W: previously published CYP2B6 double active site mutant (Nguyen et al 2008) (protein, UniProt P20813 1-491, looked up, variant I114V V477W) Cytochrome P450 2B6: MELSVLLFLALLTGLLLLLVQRHPNTHDRLPPGPRPLPLLGNLLQMDRRGLLKSFLRFREKYGDVFTVHLGPRPVVMLCGVEAIREALVDKAEAFSGRGKIAMVDPFFRGYGVVFANGNRWKVLRRFSVTTMRDFGMGKRSVEERIQEEAQCLIEELRKSKGALMDPTFLFQSITANIICSIVFGKRFHYQDQEFLKMLNLFYQTFSLISSVFGQLFELFSGFLKYFPGAHRQVYKNLQEINAYIGHSVEKHRETLDPSAPKDLIDTYLLHMEKEKSNAHSEFSHQNLNLNTLSLFFAGTETTSTTLRYGFLLMLKYPHVAERVYREIEQVIGPHRPPELHDRAKMPYTEAVIYEIQRFSDLLPMGVPHIVTQHTSFRGYIIPKDTEVFLILSTALHDPHYFEKPDAFNPDHFLDANGALKKTEAFIPFSLGKRICLGEGIARAELFLFFTTILQNFSMASPVAPEDIDLTPQECGWGKIPPTYQIRFLPR | – | – | – | CPA-4-hydroxylation efficiency compared to wild-type enzyme [3]: four-fold increase
